{"source": "patent KR20200059381A", "binders": {"B1": {"name": "단클론항체 1E58 (antibody, V domains shown)", "VH": "EFQLQQSRPELAKPGASVKISCKTSGHTFTTYTMHWVKQSHVKSLEWIGCFNPNNGGATYNQKFKGKATLTMDKSSNTAYVEVRSLTSDDSAVYYCAYGNYVNFDYWGQGTTLTVSS", "VL": "DIVLTQSPASLAVSLGQRATISYRASKSVSTSGYSYMHWNQQKPGQPPRLLIYLVSNLESGVPARFSGSGSGTDFTLNIHPVEEEDAATYYCQHIRELTRSEGGPSWKN"}}, "key": {"[1]": {"target": "구제역 바이러스 혈청형 O 배양액(cal1~cal4) (Foot-and-mouth disease virus serotype O)", "assay": "sandwich ELISA, cal4, 1E58 coat 2 ug/ml, 1E58-HRP 0.6 ug/ml, 450 nm"}, "[2]": {"target": "구제역 바이러스 혈청형 O 배양액(cal1~cal4) (Foot-and-mouth disease virus serotype O)", "assay": "sandwich ELISA, cal1, 1E58 coat 8 ug/ml, 1E58-HRP 0.4 ug/ml, 450 nm"}, "[3]": {"target": "구제역 바이러스 혈청형 O 배양액(cal1~cal4) (Foot-and-mouth disease virus serotype O)", "assay": "sandwich ELISA, cal3, 1E58 coat 8 ug/ml, 1E58-HRP 0.6 ug/ml, 450 nm"}, "[4]": {"target": "구제역 바이러스 혈청형 O 배양액(cal1~cal4) (Foot-and-mouth disease virus serotype O)", "assay": "sandwich ELISA, cal4, 1E58 coat 4 ug/ml, 1E58-HRP 0.6 ug/ml, 450 nm"}, "[5]": {"target": "구제역 바이러스 혈청형 O 배양액(cal1~cal4) (Foot-and-mouth disease virus serotype O)", "assay": "sandwich ELISA, cal1, 1E58 coat 8 ug/ml, 1E58-HRP 0.2 ug/ml, 450 nm"}, "[6]": {"target": "구제역 바이러스 혈청형 O 배양액(cal1~cal4) (Foot-and-mouth disease virus serotype O)", "assay": "sandwich ELISA, cal4, 1E58 coat 8 ug/ml, 1E58-HRP 0.6 ug/ml, 450 nm"}, "[7]": {"target": "구제역 바이러스 혈청형 O 배양액(cal1~cal4) (Foot-and-mouth disease virus serotype O)", "assay": "sandwich ELISA, cal1, 1E58 coat 2 ug/ml, 1E58-HRP 0.8 ug/ml, 450 nm"}, "[8]": {"target": "구제역 바이러스 혈청형 O 배양액(cal1~cal4) (Foot-and-mouth disease virus serotype O)", "assay": "sandwich ELISA, cal1, 1E58 coat 4 ug/ml, 1E58-HRP 0.4 ug/ml, 450 nm"}, "[9]": {"target": "구제역 바이러스 혈청형 O 배양액(cal1~cal4) (Foot-and-mouth disease virus serotype O)", "assay": "sandwich ELISA, cal1, 1E58 coat 8 ug/ml, 1E58-HRP 0.6 ug/ml, 450 nm"}, "[10]": {"target": "구제역 바이러스 혈청형 O 배양액(cal1~cal4) (Foot-and-mouth disease virus serotype O)", "assay": "sandwich ELISA, cal2, 1E58 coat 4 ug/ml, 1E58-HRP 0.2 ug/ml, 450 nm"}, "[11]": {"target": "구제역 바이러스 혈청형 O 배양액(cal1~cal4) (Foot-and-mouth disease virus serotype O)", "assay": "sandwich ELISA, cal2, 1E58 coat 4 ug/ml, 1E58-HRP 0.8 ug/ml, 450 nm"}, "[12]": {"target": "구제역 바이러스 혈청형 O 배양액(cal1~cal4) (Foot-and-mouth disease virus serotype O)", "assay": "sandwich ELISA, cal3, 1E58 coat 1 ug/ml, 1E58-HRP 0.2 ug/ml, 450 nm"}, "[13]": {"target": "구제역 바이러스 혈청형 O 배양액(cal1~cal4) (Foot-and-mouth disease virus serotype O)", "assay": "sandwich ELISA, cal2, 1E58 coat 2 ug/ml, 1E58-HRP 0.8 ug/ml, 450 nm"}, "[14]": {"target": "구제역 바이러스 혈청형 O 배양액(cal1~cal4) (Foot-and-mouth disease virus serotype O)", "assay": "sandwich ELISA, cal2, 1E58 coat 1 ug/ml, 1E58-HRP 0.8 ug/ml, 450 nm"}, "[15]": {"target": "구제역 바이러스 혈청형 O 배양액(cal1~cal4) (Foot-and-mouth disease virus serotype O)", "assay": "sandwich ELISA, cal4, 1E58 coat 2 ug/ml, 1E58-HRP 0.8 ug/ml, 450 nm"}, "[16]": {"target": "구제역 바이러스 혈청형 O 배양액(cal1~cal4) (Foot-and-mouth disease virus serotype O)", "assay": "sandwich ELISA, cal3, 1E58 coat 4 ug/ml, 1E58-HRP 0.4 ug/ml, 450 nm"}, "[17]": {"target": "구제역 바이러스 혈청형 O 배양액(cal1~cal4) (Foot-and-mouth disease virus serotype O)", "assay": "sandwich ELISA, cal4, 1E58 coat 4 ug/ml, 1E58-HRP 0.4 ug/ml, 450 nm"}, "[18]": {"target": "구제역 바이러스 혈청형 O 배양액(cal1~cal4) (Foot-and-mouth disease virus serotype O)", "assay": "sandwich ELISA, cal2, 1E58 coat 2 ug/ml, 1E58-HRP 0.2 ug/ml, 450 nm"}, "[19]": {"target": "구제역 바이러스 혈청형 O 배양액(cal1~cal4) (Foot-and-mouth disease virus serotype O)", "assay": "sandwich ELISA, cal1, 1E58 coat 1 ug/ml, 1E58-HRP 0.2 ug/ml, 450 nm"}, "[20]": {"target": "구제역 바이러스 혈청형 O 배양액(cal1~cal4) (Foot-and-mouth disease virus serotype O)", "assay": "sandwich ELISA, cal1, 1E58 coat 4 ug/ml, 1E58-HRP 0.2 ug/ml, 450 nm"}, "[21]": {"target": "구제역 바이러스 혈청형 O 배양액(cal1~cal4) (Foot-and-mouth disease virus serotype O)", "assay": "sandwich ELISA, cal4, 1E58 coat 1 ug/ml, 1E58-HRP 0.4 ug/ml, 450 nm"}, "[22]": {"target": "구제역 바이러스 혈청형 O 배양액(cal1~cal4) (Foot-and-mouth disease virus serotype O)", "assay": "sandwich ELISA, cal3, 1E58 coat 8 ug/ml, 1E58-HRP 0.8 ug/ml, 450 nm"}, "[23]": {"target": "구제역 바이러스 혈청형 O 배양액(cal1~cal4) (Foot-and-mouth disease virus serotype O)", "assay": "sandwich ELISA, cal4, 1E58 coat 2 ug/ml, 1E58-HRP 0.2 ug/ml, 450 nm"}, "[24]": {"target": "구제역 바이러스 혈청형 O 배양액(cal1~cal4) (Foot-and-mouth disease virus serotype O)", "assay": "sandwich ELISA, cal4, 1E58 coat 1 ug/ml, 1E58-HRP 0.2 ug/ml, 450 nm"}, "[25]": {"target": "구제역 바이러스 혈청형 O 배양액(cal1~cal4) (Foot-and-mouth disease virus serotype O)", "assay": "sandwich ELISA, cal1, 1E58 coat 4 ug/ml, 1E58-HRP 0.8 ug/ml, 450 nm"}, "[26]": {"target": "구제역 바이러스 혈청형 O 배양액(cal1~cal4) (Foot-and-mouth disease virus serotype O)", "assay": "sandwich ELISA, cal2, 1E58 coat 8 ug/ml, 1E58-HRP 0.2 ug/ml, 450 nm"}, "[27]": {"target": "구제역 바이러스 혈청형 O 배양액(cal1~cal4) (Foot-and-mouth disease virus serotype O)", "assay": "sandwich ELISA, cal3, 1E58 coat 2 ug/ml, 1E58-HRP 0.4 ug/ml, 450 nm"}, "[28]": {"target": "구제역 바이러스 혈청형 O 배양액(cal1~cal4) (Foot-and-mouth disease virus serotype O)", "assay": "sandwich ELISA, cal1, 1E58 coat 2 ug/ml, 1E58-HRP 0.4 ug/ml, 450 nm"}}}
{"binder": "B1", "values": [{"measurement": "O.D", "setting": "[1]", "result": 0.87, "unit": "O.D"}, {"measurement": "O.D", "setting": "[2]", "result": 3.18, "unit": "O.D"}, {"measurement": "O.D", "setting": "[3]", "result": 1.13, "unit": "O.D"}, {"measurement": "O.D", "setting": "[4]", "result": 1.11, "unit": "O.D"}, {"measurement": "O.D", "setting": "[5]", "result": 2.35, "unit": "O.D"}, {"measurement": "O.D", "setting": "[6]", "result": 0.62, "unit": "O.D"}, {"measurement": "O.D", "setting": "[7]", "result": 4, "unit": "O.D"}, {"measurement": "O.D", "setting": "[8]", "result": 3.15, "unit": "O.D"}, {"measurement": "O.D", "setting": "[9]", "result": 3.27, "unit": "O.D"}, {"measurement": "O.D", "setting": "[10]", "result": 2.09, "unit": "O.D"}, {"measurement": "O.D", "setting": "[11]", "result": 3.75, "unit": "O.D"}, {"measurement": "O.D", "setting": "[12]", "result": 0.54, "unit": "O.D"}, {"measurement": "O.D", "setting": "[13]", "result": 3.67, "unit": "O.D"}, {"measurement": "O.D", "setting": "[14]", "result": 1.97, "unit": "O.D"}, {"measurement": "O.D", "setting": "[15]", "result": 1.05, "unit": "O.D"}, {"measurement": "O.D", "setting": "[16]", "result": 1.78, "unit": "O.D"}, {"measurement": "O.D", "setting": "[17]", "result": 0.88, "unit": "O.D"}, {"measurement": "O.D", "setting": "[18]", "result": 1.8, "unit": "O.D"}, {"measurement": "O.D", "setting": "[19]", "result": 1.81, "unit": "O.D"}, {"measurement": "O.D", "setting": "[20]", "result": 3.47, "unit": "O.D"}, {"measurement": "O.D", "setting": "[21]", "result": 0.65, "unit": "O.D"}, {"measurement": "O.D", "setting": "[22]", "result": 1.31, "unit": "O.D"}, {"measurement": "O.D", "setting": "[23]", "result": 0.62, "unit": "O.D"}, {"measurement": "O.D", "setting": "[24]", "result": 0.5, "unit": "O.D"}, {"measurement": "O.D", "setting": "[25]", "result": 4, "unit": "O.D"}, {"measurement": "O.D", "setting": "[26]", "result": 1.24, "unit": "O.D"}, {"measurement": "O.D", "setting": "[27]", "result": 1.37, "unit": "O.D"}, {"measurement": "O.D", "setting": "[28]", "result": 3.87, "unit": "O.D"}]}
